Assays:
Assay in all cases: cell-based or functional assay
[1] = target: HIV-1 Env of pseudovirus 7030102001E5(Rev-) (HIV-1)
[2] = target: HIV-1 Env of pseudovirus 620345.c01 (HIV-1)
[3] = target: HIV-1 Env of pseudovirus 6244_13_B5_4576 (HIV-1)
[4] = target: HIV-1 Env of pseudovirus CNE30 (HIV-1)
[5] = target: HIV-1 Env of pseudovirus HIV-001428-2.42 (HIV-1)
[6] = target: HIV-1 Env of pseudovirus 6540.v4.c1 (HIV-1)
[7] = target: HIV-1 Env of pseudovirus A07412M1.vrc12 (HIV-1)
[8] = target: HIV-1 Env of pseudovirus THRO4156.18 (HIV-1)
[9] = target: HIV-1 Env of pseudovirus X1193_c1 (HIV-1)
[10] = target: HIV-1 Env of pseudovirus T257-31 (HIV-1)
[11] = target: HIV-1 Env of pseudovirus 3103.v3.c10 (HIV-1)
[12] = target: HIV-1 Env of pseudovirus 1006_11_C3_1601 (HIV-1)
[13] = target: HIV-1 Env of pseudovirus QH0692.42 (HIV-1)
[14] = target: HIV-1 Env of pseudovirus SC05_8C11_2344 (HIV-1)
[15] = target: HIV-1 Env of pseudovirus CNE17 (HIV-1)
[16] = target: HIV-1 Env of pseudovirus R1166.c01 (HIV-1)
[17] = target: HIV-1 Env of pseudovirus BJOX028000.10.3 (HIV-1)
[18] = target: HIV-1 Env of pseudovirus Du172.17 (HIV-1)
[19] = target: HIV-1 Env of pseudovirus CNE21 (HIV-1)
[20] = target: HIV-1 Env of pseudovirus R3265.c06 (HIV-1)
[21] = target: HIV-1 Env of pseudovirus Du422.1 (HIV-1)
[22] = target: HIV-1 Env of pseudovirus T255-34 (HIV-1)
[23] = target: HIV-1 Env of pseudovirus 3016.v5.c45 (HIV-1)
[24] = target: HIV-1 Env of pseudovirus 1012_11_TC21_3257 (HIV-1)
[25] = target: HIV-1 Env of pseudovirus TRO.11 (HIV-1)
[26] = target: HIV-1 Env of pseudovirus CNE8 (HIV-1)
[27] = target: HIV-1 Env of pseudovirus 89-F1_2_25 (HIV-1)
[28] = target: HIV-1 Env of pseudovirus 211-9 (HIV-1)
[29] = target: HIV-1 Env of pseudovirus 1394C9G1(Rev-) (HIV-1)
[30] = target: HIV-1 Env of pseudovirus ZM214M.PL15 (HIV-1)
[31] = target: HIV-1 Env of pseudovirus Q842.d12 (HIV-1)
[32] = target: HIV-1 Env of pseudovirus CNE5 (HIV-1)
[33] = target: HIV-1 Env of pseudovirus 6041.v3.c23 (HIV-1)
[34] = target: HIV-1 Env of pseudovirus REJO4541.67 (HIV-1)
[35] = target: HIV-1 Env of pseudovirus HIV-16845-2.22 (HIV-1)
[36] = target: HIV-1 Env of pseudovirus Ce2060_G9 (HIV-1)
[37] = target: HIV-1 Env of pseudovirus X1632_S2_B10 (HIV-1)

PGDM1400 (antibody) showed an IC50 [1] of over 50 µg/mL, an IC80 [1] of over 50 µg/mL and an IC50, titer in TZM.bl cells [2] of 0.009 µg/mL. For the same substance, the IC80, titer in TZM.bl cells [2] was 40.3 µg/mL, the IC50 [3] was over 50 µg/mL and the IC80 [3] was over 50 µg/mL. For the same substance, the IC50 [4] was over 50 µg/mL, the IC80 [4] was over 50 µg/mL and the IC50 [5] was under 0.001 µg/mL. The IC80 [5] was 0.027 µg/mL, the IC50, titer in TZM.bl cells [6] was 0.004 µg/mL and the IC80, titer in TZM.bl cells [6] was 0.028 µg/mL. The IC50, titer in TZM.bl cells [7] was 0.032 µg/mL, the IC80, titer in TZM.bl cells [7] was 0.127 µg/mL and the IC50 [8] was 0.072 µg/mL. It also gave an IC80 [8] of 0.348 µg/mL, an IC50, titer in TZM.bl cells [9] of 0.219 µg/mL and an IC80, titer in TZM.bl cells [9] of 0.781 µg/mL. The IC50 [10] was 0.002 µg/mL, the IC80 [10] was 0.031 µg/mL and the IC50, titer in TZM.bl cells [11] was 0.671 µg/mL. For the same substance, the IC80, titer in TZM.bl cells [11] was 2 µg/mL, the IC50 [12] was 4.32 µg/mL and the IC80 [12] was over 50 µg/mL. For the same substance, the IC50 [13] was over 50 µg/mL, the IC80 [13] was over 50 µg/mL and the IC50 [14] was 1.26 µg/mL. The IC80 [14] was 3.59 µg/mL, the IC50 [15] was 0.007 µg/mL and the IC80 [15] was 0.021 µg/mL. For the same substance, the IC50, titer in TZM.bl cells [16] was 1.43 µg/mL, the IC80, titer in TZM.bl cells [16] was 6.92 µg/mL and the IC50, titer in TZM.bl cells [17] was 0.072 µg/mL. The IC80, titer in TZM.bl cells [17] was 0.963 µg/mL, the IC50 [18] was 5.18 µg/mL and the IC80 [18] was 22 µg/mL. It also gave an IC50 [19] of under 0.001 µg/mL, an IC80 [19] of 0.002 µg/mL and an IC50, titer in TZM.bl cells [20] of 0.013 µg/mL. For the same substance, the IC80, titer in TZM.bl cells [20] was 0.041 µg/mL, the IC50 [21] was 0.694 µg/mL and the IC80 [21] was over 50 µg/mL. The IC50, titer in TZM.bl cells [22] was 0.654 µg/mL, the IC80, titer in TZM.bl cells [22] was over 50 µg/mL and the IC50, titer in TZM.bl cells [23] was over 50 µg/mL. The IC80, titer in TZM.bl cells [23] was over 50 µg/mL, the IC50 [24] was 0.049 µg/mL and the IC80 [24] was 0.23 µg/mL. The IC50 [25] was 0.283 µg/mL, the IC80 [25] was 1.38 µg/mL and the IC50, titer in TZM.bl cells [26] was under 0.001 µg/mL. It also gave an IC80, titer in TZM.bl cells [26] of 0.01 µg/mL, an IC50, titer in TZM.bl cells [27] of 0.001 µg/mL and an IC80, titer in TZM.bl cells [27] of 0.005 µg/mL. The IC50, titer in TZM.bl cells [28] was 0.088 µg/mL, the IC80, titer in TZM.bl cells [28] was 0.393 µg/mL and the IC50 [29] was under 0.001 µg/mL. The IC80 [29] was 0.004 µg/mL, the IC50 [30] was over 50 µg/mL and the IC80 [30] was over 50 µg/mL. It also gave an IC50 [31] of under 0.001 µg/mL, an IC80 [31] of 0.002 µg/mL and an IC50, titer in TZM.bl cells [32] of under 0.001 µg/mL. It also gave an IC80, titer in TZM.bl cells [32] of under 0.001 µg/mL, an IC50, titer in TZM.bl cells [33] of 0.013 µg/mL and an IC80, titer in TZM.bl cells [33] of 0.289 µg/mL. It also gave an IC50 [34] of 0.028 µg/mL, an IC80 [34] of 0.992 µg/mL and an IC50 [35] of over 50 µg/mL. It also gave an IC80 [35] of over 50 µg/mL, an IC50 [36] of 0.001 µg/mL and an IC80 [36] of 0.007 µg/mL. For the same substance, the IC50, titer in TZM.bl cells [37] was 0.055 µg/mL and the IC80, titer in TZM.bl cells [37] was 1.45 µg/mL.

— patent US20230002480A1
